In article PMC9380774, “Mpe1 senses the binding of pre-mRNA and controls 3′ end processing by CPF” (Molecular Cell, 2022):

T1: Cft1 (S. cerevisiae, UniProt Q06632 1-1357)
T1 construct: Cft1, S. cerevisiae, subunit of the polymerase module of CPF; E. coli codon-optimized gene (GeneArt); source: Sf9, baculovirus, co-expressed with Mpe1-SII, in lysate; also as subunit of the purified polymerase module (Sf9)
T1 sequence: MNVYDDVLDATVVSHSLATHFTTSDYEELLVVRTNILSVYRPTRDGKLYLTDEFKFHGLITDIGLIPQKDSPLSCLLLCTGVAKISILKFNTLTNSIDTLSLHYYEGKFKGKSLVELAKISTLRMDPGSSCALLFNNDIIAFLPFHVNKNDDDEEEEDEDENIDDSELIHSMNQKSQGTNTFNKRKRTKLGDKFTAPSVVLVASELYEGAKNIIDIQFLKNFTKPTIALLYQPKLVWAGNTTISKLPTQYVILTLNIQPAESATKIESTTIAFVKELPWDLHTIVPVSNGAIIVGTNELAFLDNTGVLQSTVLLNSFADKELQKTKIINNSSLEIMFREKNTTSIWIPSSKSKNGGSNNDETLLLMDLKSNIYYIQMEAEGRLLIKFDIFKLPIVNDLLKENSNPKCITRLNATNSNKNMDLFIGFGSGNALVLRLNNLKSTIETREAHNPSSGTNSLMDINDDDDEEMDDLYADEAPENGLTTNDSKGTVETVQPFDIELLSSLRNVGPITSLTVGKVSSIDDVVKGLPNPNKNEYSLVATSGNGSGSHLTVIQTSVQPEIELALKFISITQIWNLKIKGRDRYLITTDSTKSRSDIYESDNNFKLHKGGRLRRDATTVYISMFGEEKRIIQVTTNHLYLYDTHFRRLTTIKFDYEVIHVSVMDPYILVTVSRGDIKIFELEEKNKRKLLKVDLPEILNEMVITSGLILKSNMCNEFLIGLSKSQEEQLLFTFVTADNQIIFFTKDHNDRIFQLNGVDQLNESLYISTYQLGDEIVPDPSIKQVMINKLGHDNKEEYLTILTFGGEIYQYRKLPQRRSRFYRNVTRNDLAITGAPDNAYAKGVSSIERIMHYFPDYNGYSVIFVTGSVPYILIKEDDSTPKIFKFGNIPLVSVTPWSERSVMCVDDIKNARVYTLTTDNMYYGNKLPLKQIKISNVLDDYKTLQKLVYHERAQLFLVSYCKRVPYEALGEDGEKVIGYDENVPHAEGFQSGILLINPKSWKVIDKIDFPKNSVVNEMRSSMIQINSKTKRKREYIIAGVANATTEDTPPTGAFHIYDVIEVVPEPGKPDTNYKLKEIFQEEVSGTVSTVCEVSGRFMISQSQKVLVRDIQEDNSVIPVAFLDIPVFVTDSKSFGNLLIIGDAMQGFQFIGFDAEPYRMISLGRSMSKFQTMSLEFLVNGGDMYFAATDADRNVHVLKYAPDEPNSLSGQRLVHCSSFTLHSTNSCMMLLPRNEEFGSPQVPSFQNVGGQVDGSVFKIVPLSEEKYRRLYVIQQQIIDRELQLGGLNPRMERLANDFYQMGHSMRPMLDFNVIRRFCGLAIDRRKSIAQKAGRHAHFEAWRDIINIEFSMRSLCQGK

B1: StrepII-tagged Mpe1 (Mpe1-SII) (natural protein, S. cerevisiae)
chain: MSSTIFYRFKSQRNTSRILFDGTGLTVFDLKREIIQENKLGDGTDFQLKIYNPDTEEEYDDDAFVIPRSTSVIVKRSPAIKSFSVHSRLKGNVGAAALGNATRYVTGRPRVLQKRQHTATTTANVSGTTEEERIASMFATQENQWEQTQEEMSAATPVFFKSQTNKNSAQENEGPPPPGYMCYRCGGRDHWIKNCPTNSDPNFEGKRIRRTTGIPKKFLKSIEIDPETMTPEEMAQRKIMITDEGKFVVQVEDKQSWEDYQRKRENRQIDGDETIWRKGHFKDLPDDLKCPLTGGLLRQPVKTSKCCNIDFSKEALENALVESDFVCPNCETRDILLDSLVPDQDKEKEVETFLKKQEELHGSSKDGNQPETKKMKLMDPTGTAGLNNNTSLPTSVNNGGTPVPPVPLPFGIPPFPMFPMPFMPPTATITNPHQADASPKK
notes: Mpe1, S. cerevisiae, subunit of the nuclease module of CPF; no cleavage is told; also called WT Mpe1; Mpe1-3C-SII; source: Sf9, baculovirus; in lysate, and purified (Strep-Tactin, MonoQ)
B2: Pfs2 (natural protein, S. cerevisiae)
chain: MDGHNQNQYQNQNQIQQSQQPPLKKYVTQRRSVDVSSPYINLYYNRRHGLPNLVVEPETSYTIDIMPPNAYRGRDRVINLPSKFTHLSSNKVKHVIPAIQWTPEGRRLVVATYSGEFSLWNASSFTFETLMQAHDSAVTTMKYSHDSDWMISGDADGMIKIWQPNFSMVKEIDAAHTESIRDMAFSSNDSKFVTCSDDNILKIWNFSNGKQERVLSGHHWDVKSCDWHPEMGLIASASKDNLVKLWDPRSGNCISSILKFKHTVLKTRFQPTKGNLLMAISKDKSCRVFDIRYSMKELMCVRDETDYMTLEWHPINESMFTLACYDGSLKHFDLLQNLNEPILTIPYAHDKCITSLSYNPVGHIFATAAKDRTIRFWTRARPIDPNAYDDPTYNNKKINGWFFGINNDINAVREKSEFGAAPPPPATLEPHALPNMNGFINKKPRQEIPGIDSNIKSSTLPGLSI
notes: Pfs2, S. cerevisiae, subunit of the polymerase module of CPF; E. coli codon-optimized gene (GeneArt); source: Sf9, baculovirus, co-expressed with Mpe1-SII, in lysate; also as subunit of the purified polymerase module (Sf9)
B3: Yth1 (natural protein, S. cerevisiae)
chain: MSLIHPDTAKYPFKFEPFLRQEYSFSLDPDRPICEFYNSREGPKSCPRGPLCPKKHVLPIFQNKIVCRHWLRGLCKKNDQCEYLHEYNLRKMPECVFFSKNGYCTQSPDCQYLHIDPASKIPKCENYEMGFCPLGSSCPRRHIKKVFCQRYMTGFCPLGKDECDMEHPQFIIPDEGSKLRIKRDDEINTRKMDEEKERRLNAIINGEV
notes: Yth1, S. cerevisiae, subunit of the polymerase module of CPF; E. coli codon-optimized gene (GeneArt); source: Sf9, baculovirus, co-expressed with Mpe1-SII, in lysate; also as subunit of the purified polymerase module (Sf9)
B4: Cft2(S), residues 1-720 (domain or fragment, S. cerevisiae, UniProt Q12102 1-720, looked up)
chain: MTYKYNCCDDGSGTTVGSVVRFDNVTLLIDPGWNPSKVSYEQCIKYWEKVIPEIDVIILSQPTIECLGAHSLLYYNFTSHFISRIQVYATLPVINLGRVSTIDSYASAGVIGPYDTNKLDLEDIEISFDHIVPLKYSQLVDLRSRYDGLTLLAYNAGVCPGGSIWCISTYSEKLVYAKRWNHTRDNILNAASILDATGKPLSTLMRPSAIITTLDRFGSSQPFKKRSKIFKDTLKKGLSSDGSVIIPVDMSGKFLDLFTQVHELLFESTKINAHTQVPVLILSYARGRTLTYAKSMLEWLSPSLLKTWENRNNTSPFEIGSRIKIIAPNELSKYPGSKICFVSEVGALINEVIIKVGNSEKTTLILTKPSFECASSLDKILEIVEQDERNWKTFPEDGKSFLCDNYISIDTIKEEPLSKEETEAFKVQLKEKKRDRNKKILLVKRESKKLANGNAIIDDTNGERAMRNQDILVENVNGVPPIDHIMGGDEDDDEEEENDNLLNLLKDNSEKSAAKKNTEVPVDIIIQPSAASKHKMFPFNPAKIKKDDYGTVVDFTMFLPDDSDNVNQNSRKRPLKDGAKTTSPVNEEDNKNEEEDGYNMSDPISKRSKHRASRYSGFSGTGEAENFDNLDYLKIDKTLSKRTISTVNVQLKCSVVILNLQSLVDQRSASIIWPSLKSRKIVLSAPKQIQNEEITAKLIKKNIEVVNMPLNKIVEFSTTI
notes: Cft2, S. cerevisiae, residues 1-720, lacks the disordered C-terminal region; also called Cft2(short); truncated version of Cft2; source: E. coli BL21 Star (DE3), purified (Ni-NTA, 3C cleavage, MonoQ, Superdex 200)
B5: Cft2 (untagged, co-expressed with the polymerase module) (natural protein, S. cerevisiae, UniProt Q12102 1-859, looked up)
chain: MTYKYNCCDDGSGTTVGSVVRFDNVTLLIDPGWNPSKVSYEQCIKYWEKVIPEIDVIILSQPTIECLGAHSLLYYNFTSHFISRIQVYATLPVINLGRVSTIDSYASAGVIGPYDTNKLDLEDIEISFDHIVPLKYSQLVDLRSRYDGLTLLAYNAGVCPGGSIWCISTYSEKLVYAKRWNHTRDNILNAASILDATGKPLSTLMRPSAIITTLDRFGSSQPFKKRSKIFKDTLKKGLSSDGSVIIPVDMSGKFLDLFTQVHELLFESTKINAHTQVPVLILSYARGRTLTYAKSMLEWLSPSLLKTWENRNNTSPFEIGSRIKIIAPNELSKYPGSKICFVSEVGALINEVIIKVGNSEKTTLILTKPSFECASSLDKILEIVEQDERNWKTFPEDGKSFLCDNYISIDTIKEEPLSKEETEAFKVQLKEKKRDRNKKILLVKRESKKLANGNAIIDDTNGERAMRNQDILVENVNGVPPIDHIMGGDEDDDEEEENDNLLNLLKDNSEKSAAKKNTEVPVDIIIQPSAASKHKMFPFNPAKIKKDDYGTVVDFTMFLPDDSDNVNQNSRKRPLKDGAKTTSPVNEEDNKNEEEDGYNMSDPISKRSKHRASRYSGFSGTGEAENFDNLDYLKIDKTLSKRTISTVNVQLKCSVVILNLQSLVDQRSASIIWPSLKSRKIVLSAPKQIQNEEITAKLIKKNIEVVNMPLNKIVEFSTTIKTLDISIDSNLDNLLKWQRISDSYTVATVVGRLVKESLPQVNNHQKTASRSKLVLKPLHGSSRSHKTGALSIGDVRLAQLKKLLTEKNYIAEFKGEGTLVINEKVAVRKINDAETIIDGTPSELFDTVKKLVTDMLAKI
notes: Cft2, S. cerevisiae, pseudo-nuclease subunit of the nuclease module of CPF; source: Sf9, co-infected with viruses for the polymerase module (Pfs2-SII) and Ysh1-Cft2; in lysate, and co-purified with the polymerase module (Strep-Tactin, MonoQ)

Columns and labels:
[1] = biological target: T2, S. cerevisiae polymerase module with an SII tag on Pfs2 (S. cerevisiae, UniProt Q06632 1-1357; P29468 1-568; P42841 1-465; P45976 1-327; Q06102 2-208); experiment: SEC; analytical, Superose 6 Increase 3.2/300, SEC 50 buffer (20 mM HEPES pH 8, 50 mM NaCl, 0.5 mM TCEP); 5 μM polymerase module or polymerase module-Cft2 complex, 15 μM Mpe1 or variant, 10 μM Cft2(S) or 720 μM yPIM peptide; with or without 10 μM precleaved CYC1 RNA; conditions: both partners purified
T2 construct: Cft1, S. cerevisiae; Pap1, S. cerevisiae; Pfs2, S. cerevisiae; Fip1, S. cerevisiae; Yth1, S. cerevisiae; That Construct B is the plasmid of this co-infection is surmised from the SII tag on Pfs2; also called Construct B (Cft1-Pap1-Pfs2-SII-Fip1-Yth1); source: Sf9, co-infected with a virus for untagged Cft2 and Ysh1; in lysate, and purified with Cft2 (Strep-Tactin, MonoQ); copies: + + + +

Cft2(S), residues 1-720 [2] = biological target: B4; experiment: cryo-EM structure; sample of polymerase module, Mpe1, Cft2(S) and precleaved CYC1 RNA; only the polymerase module and the yPIM of Cft2 are seen in the map; conditions: both partners purified
Cft2(S), residues 1-720 [3] = biological target: B4; experiment: cross-linking; polymerase module-Cft2(S)-Mpe1-RNA complex (0.5 mg/ml) with 2 mM sulfo-SDA for 2 h on ice, UV 365 nm for 15 min; 20 mM HEPES, 50 mM NaCl, 0.5 mM TCEP, pH 8.0; mass spectrometry, 1 % FDR on link level; conditions: both partners purified
Cft1 = biological target: T1, Cft1; experiment: cryo-EM structure; sample of polymerase module, Mpe1, Cft2(S) and precleaved CYC1 RNA; only the polymerase module and the yPIM of Cft2 are seen in the map; conditions: both partners purified
[4] = biological target: T2, S. cerevisiae polymerase module with an …; experiment: pull-down; Sf9 cells co-infected with viruses for the polymerase module (SII on Pfs2) and for untagged Cft2 and Ysh1; Strep-Tactin in Buffer A, then MonoQ; conditions: partners not purified

T2 sequence (P29468 whole entry, chain 2 of 2): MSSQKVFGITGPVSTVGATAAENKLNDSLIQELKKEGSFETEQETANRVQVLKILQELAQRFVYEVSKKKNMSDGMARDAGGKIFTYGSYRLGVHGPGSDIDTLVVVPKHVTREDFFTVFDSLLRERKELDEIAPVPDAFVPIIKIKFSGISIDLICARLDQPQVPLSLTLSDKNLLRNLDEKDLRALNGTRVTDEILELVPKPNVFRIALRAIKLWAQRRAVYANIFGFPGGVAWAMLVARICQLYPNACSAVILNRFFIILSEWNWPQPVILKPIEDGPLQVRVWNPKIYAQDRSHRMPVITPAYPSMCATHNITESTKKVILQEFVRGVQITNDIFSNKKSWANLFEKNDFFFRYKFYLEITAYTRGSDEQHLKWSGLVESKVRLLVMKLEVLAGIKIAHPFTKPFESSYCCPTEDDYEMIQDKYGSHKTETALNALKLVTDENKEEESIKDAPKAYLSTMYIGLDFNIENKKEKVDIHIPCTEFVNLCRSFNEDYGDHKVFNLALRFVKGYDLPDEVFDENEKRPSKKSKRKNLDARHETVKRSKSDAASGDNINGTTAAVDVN
T2 sequence (P45976 whole entry, chain 4 of 2): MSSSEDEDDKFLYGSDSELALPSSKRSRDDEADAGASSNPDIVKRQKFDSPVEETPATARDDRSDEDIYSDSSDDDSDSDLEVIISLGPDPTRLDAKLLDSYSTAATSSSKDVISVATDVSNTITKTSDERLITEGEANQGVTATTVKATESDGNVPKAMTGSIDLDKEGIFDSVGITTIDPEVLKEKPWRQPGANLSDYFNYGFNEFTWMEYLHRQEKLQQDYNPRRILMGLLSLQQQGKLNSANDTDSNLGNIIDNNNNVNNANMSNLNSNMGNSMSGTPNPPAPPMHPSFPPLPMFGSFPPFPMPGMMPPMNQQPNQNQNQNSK

Binder: B1
- binding result [1]: binds

Binder: B2
- binding result (Cft2(S), residues 1-720 [2]): binds

Binder: B3
- binding result (Cft2(S), residues 1-720 [3]): binds

Binder: B4
- binding result (Cft1): binds

Binder: B5
- binding result [4]: binds
